B1: glmS ribozyme (parent)
chain: AUAAAAGCGCCAGAACUACAGAAAUGUAGUUGACGAGGAGGAGGUUUAUCGAAUUUUCGGCGGAUGCCUCCAAA

± gives the standard error. Fewer inactive variants are shown than the library holds.

The variants in the series derive from B1. Briefly: self-cleavage kobs at 10000 uM GlcN6P; higher = faster cleavage; RNA array. To be noted: with glucosamine-6-phosphate. The method in brief: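 Barcoded ribozyme variants on sequenced MiSeq chips were transcribed in situ by E. coli RNA polymerase and followed at 37 °C through a hybridised Cy3 probe. Glucosamine-6-phosphate at 40 μM to 10 mM in HEPES/KCl/Mg(OAc)2 buffer was flowed in, and tiles were imaged over ~14 h. Signals were normalised to baseline and to non-cleaving reference variants, and per-tile medians were fit to one- or two-exponential decays to give kobs. Weighted Michaelis–Menten fits across concentrations gave kcat and KM.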
As for C8U G9U G37A C67G, the “self-cleavage kobs at 10000 uM GlcN6P” value was less than 1e-05 s⁻¹.

As for A39U A48G G60A, the “self-cleavage kobs at 10000 uM GlcN6P” value is less than 1e-05 s⁻¹.

Take A15G C16U G51U: the “self-cleavage kobs at 10000 uM GlcN6P” value was less than 1e-05 s⁻¹.

Regarding A42U A52G U57A G63C, the “self-cleavage kobs at 10000 uM GlcN6P” value is less than 1e-05 s⁻¹.

Turning to C16A G32U A33U C50G C67U, the “self-cleavage kobs at 10000 uM GlcN6P” value amounted to 0.000275 ± 9.8e-05 s⁻¹.

In the case of C11G A12G G32C U57C, the “self-cleavage kobs at 10000 uM GlcN6P” value was less than 1e-05 s⁻¹.

Turning to A14U C34U C68G, the “self-cleavage kobs at 10000 uM GlcN6P” value was 7.15e-05 ± 2.1e-05 s⁻¹.

Regarding C8A A14U A15G G29A, the “self-cleavage kobs at 10000 uM GlcN6P” value was less than 1e-05 s⁻¹.

For the variant U31A G66C, the “self-cleavage kobs at 10000 uM GlcN6P” value amounted to 0.000307 ± 9.3e-05 s⁻¹.

As for A36G A64C U65G, the “self-cleavage kobs at 10000 uM GlcN6P” value was less than 1e-05 s⁻¹.

For A14G C58U C71U, the “self-cleavage kobs at 10000 uM GlcN6P” value was determined as 0.00012 ± 2.1e-05 s⁻¹.

In the case of C8U G29A U31G, the “self-cleavage kobs at 10000 uM GlcN6P” value was less than 1e-05 s⁻¹.

On to G7C G9U A14G, for which the “self-cleavage kobs at 10000 uM GlcN6P” value was less than 1e-05 s⁻¹.

C8A C16U U31C G37U A39U A42U A48U: the “self-cleavage kobs at 10000 uM GlcN6P” value is less than 1e-05 s⁻¹.

Regarding G7C C10U G60U, the “self-cleavage kobs at 10000 uM GlcN6P” value was less than 1e-05 s⁻¹.

As for A4U A39G C70A, the “self-cleavage kobs at 10000 uM GlcN6P” value was 0.000171 ± 4.7e-05 s⁻¹.

Turning to A12U U47G A52U U69G, the “self-cleavage kobs at 10000 uM GlcN6P” value is 6.72e-05 ± 3e-05 s⁻¹.

Turning to U30G G37U A52U G59A, the “self-cleavage kobs at 10000 uM GlcN6P” value was less than 1e-05 s⁻¹.

Regarding G9U G35C A42C, the “self-cleavage kobs at 10000 uM GlcN6P” value was less than 1e-05 s⁻¹.

Regarding G29U U46A U54C, the “self-cleavage kobs at 10000 uM GlcN6P” value came to 7.78e-05 ± 2e-05 s⁻¹.

With G43U G44U U65G, the “self-cleavage kobs at 10000 uM GlcN6P” value was less than 1e-05 s⁻¹.

Turning to C34U U45A C61U, the “self-cleavage kobs at 10000 uM GlcN6P” value is less than 1e-05 s⁻¹.

With G37C U54A, the “self-cleavage kobs at 10000 uM GlcN6P” value was 4.2e-05 ± 1e-05 s⁻¹.

As for A14U A36C A48G C61U, the “self-cleavage kobs at 10000 uM GlcN6P” value was less than 1e-05 s⁻¹.

Turning to A14U C16G G32A U56G, the “self-cleavage kobs at 10000 uM GlcN6P” value came out at 0.000337 ± 5e-05 s⁻¹.

For the variant G35C G59A C61U, the “self-cleavage kobs at 10000 uM GlcN6P” value is less than 1e-05 s⁻¹.

Take A14G G29U G40C: the “self-cleavage kobs at 10000 uM GlcN6P” value was determined as 0.00075 ± 0.00013 s⁻¹.

On to A15G U49A G62U, for which the “self-cleavage kobs at 10000 uM GlcN6P” value is less than 1e-05 s⁻¹.

On to G7A A39U G43U, for which the “self-cleavage kobs at 10000 uM GlcN6P” value was less than 1e-05 s⁻¹.

G13A G35U G37C: the “self-cleavage kobs at 10000 uM GlcN6P” value was less than 1e-05 s⁻¹.

Consider A14U A48C U56G C68A, for which the “self-cleavage kobs at 10000 uM GlcN6P” value is less than 1e-05 s⁻¹.

Consider G35A G38U A53C C70U, for which the “self-cleavage kobs at 10000 uM GlcN6P” value is less than 1e-05 s⁻¹.

With A6C G7C G35A C68G, the “self-cleavage kobs at 10000 uM GlcN6P” value was less than 1e-05 s⁻¹.

Consider G51U U54C G66U, for which the “self-cleavage kobs at 10000 uM GlcN6P” value is less than 1e-05 s⁻¹.

As to G38U A39U A42C A48U, the “self-cleavage kobs at 10000 uM GlcN6P” value was less than 1e-05 s⁻¹.

As to A12G G44U C58G, the “self-cleavage kobs at 10000 uM GlcN6P” value was less than 1e-05 s⁻¹.

On to A14C A42C U46G A52G, for which the “self-cleavage kobs at 10000 uM GlcN6P” value is less than 1e-05 s⁻¹.

Consider A6G C58U A64U, for which the “self-cleavage kobs at 10000 uM GlcN6P” value is less than 1e-05 s⁻¹.

For A12U A33C C34U C70G, the “self-cleavage kobs at 10000 uM GlcN6P” value was less than 1e-05 s⁻¹.

With A42U U56C, the “self-cleavage kobs at 10000 uM GlcN6P” value worked out at 5.38e-05 ± 1.2e-05 s⁻¹.

Turning to C8A A39U U47G, the “self-cleavage kobs at 10000 uM GlcN6P” value is less than 1e-05 s⁻¹.

C10U G37C G43C U47C: the “self-cleavage kobs at 10000 uM GlcN6P” value is less than 1e-05 s⁻¹.

On to C8A G35U G44U A52G, for which the “self-cleavage kobs at 10000 uM GlcN6P” value is less than 1e-05 s⁻¹.

For the variant C50G A53U C71G, the “self-cleavage kobs at 10000 uM GlcN6P” value turned out to be 0.000148 ± 4e-05 s⁻¹.

As for A33C U46C, the “self-cleavage kobs at 10000 uM GlcN6P” value amounted to 4.16e-05 ± 1.7e-05 s⁻¹.

On to G32A U47G A52G C61G C71G, for which the “self-cleavage kobs at 10000 uM GlcN6P” value came out at 6.89e-05 ± 2.1e-05 s⁻¹.

On to A1U U2G A3G C8G C34G, for which the “self-cleavage kobs at 10000 uM GlcN6P” value is less than 1e-05 s⁻¹.

As for A12G C58A C71A, the “self-cleavage kobs at 10000 uM GlcN6P” value came to 5.83e-05 ± 1.4e-05 s⁻¹.

Take C34U G43U U57G U65G: the “self-cleavage kobs at 10000 uM GlcN6P” value was less than 1e-05 s⁻¹.

Regarding U47A G59A C71U, the “self-cleavage kobs at 10000 uM GlcN6P” value stood at 6.73e-05 ± 2.5e-05 s⁻¹.

On to C8G U30A A39G G41C U54G C67A, for which the “self-cleavage kobs at 10000 uM GlcN6P” value is less than 1e-05 s⁻¹.

In the case of A52C C67A, the “self-cleavage kobs at 10000 uM GlcN6P” value worked out at 2.55e-05 ± 1.1e-05 s⁻¹.

With C11A G40A U55G C71G, the “self-cleavage kobs at 10000 uM GlcN6P” value was less than 1e-05 s⁻¹.

Consider A33C G37U C70G, for which the “self-cleavage kobs at 10000 uM GlcN6P” value was less than 1e-05 s⁻¹.

In the case of A6U G29U G62C, the “self-cleavage kobs at 10000 uM GlcN6P” value is less than 1e-05 s⁻¹.

With A6U A39C G43U G51U C70G C71A, the “self-cleavage kobs at 10000 uM GlcN6P” value is less than 1e-05 s⁻¹.

As for A39U A52U U56G, the “self-cleavage kobs at 10000 uM GlcN6P” value was found to be 8.75e-05 ± 1.8e-05 s⁻¹.

On to G7A A53C G63A, for which the “self-cleavage kobs at 10000 uM GlcN6P” value is less than 1e-05 s⁻¹.

On to G21U A33U C70U, for which the “self-cleavage kobs at 10000 uM GlcN6P” value was found to be 0.000159 ± 2.9e-05 s⁻¹.

For the variant A39C U47C C70U, the “self-cleavage kobs at 10000 uM GlcN6P” value came to 0.000412 ± 0.0001 s⁻¹.

As to C8U G13U A15U C50U, the “self-cleavage kobs at 10000 uM GlcN6P” value is less than 1e-05 s⁻¹.

Consider A12U C16G G40U, for which the “self-cleavage kobs at 10000 uM GlcN6P” value was 0.000769 ± 0.00016 s⁻¹.

Take G7C G41A C61U: the “self-cleavage kobs at 10000 uM GlcN6P” value was less than 1e-05 s⁻¹.

Consider U55G G59U, for which the “self-cleavage kobs at 10000 uM GlcN6P” value came to 4.4e-05 ± 1.1e-05 s⁻¹.

With U46A G62C C71U, the “self-cleavage kobs at 10000 uM GlcN6P” value was less than 1e-05 s⁻¹.

For G7U C11U C16A U45A G51A G60C, the “self-cleavage kobs at 10000 uM GlcN6P” value was less than 1e-05 s⁻¹.

For C16G G32C C70U A73C, the “self-cleavage kobs at 10000 uM GlcN6P” value worked out at 0.000111 ± 1.7e-05 s⁻¹.

As to G41C U56C, the “self-cleavage kobs at 10000 uM GlcN6P” value was found to be 3.26e-05 ± 8.9e-06 s⁻¹.

As to G32C A36U G37A C61A C67U, the “self-cleavage kobs at 10000 uM GlcN6P” value came out at 9.54e-05 ± 1.4e-05 s⁻¹.

With G29U G40A A52C C67A, the “self-cleavage kobs at 10000 uM GlcN6P” value was less than 1e-05 s⁻¹.

Consider C11U G38U U45A A48U C71G, for which the “self-cleavage kobs at 10000 uM GlcN6P” value was less than 1e-05 s⁻¹.

Regarding A6U C10U G44A C50U, the “self-cleavage kobs at 10000 uM GlcN6P” value is less than 1e-05 s⁻¹.

Take U31G G44C: the “self-cleavage kobs at 10000 uM GlcN6P” value turned out to be 4.96e-05 ± 1.3e-05 s⁻¹.

As to A6C U31A G44A U65A, the “self-cleavage kobs at 10000 uM GlcN6P” value was less than 1e-05 s⁻¹.

For the variant C10U A42C A52U, the “self-cleavage kobs at 10000 uM GlcN6P” value is less than 1e-05 s⁻¹.

On to G32C U54A U56G, for which the “self-cleavage kobs at 10000 uM GlcN6P” value amounted to 3.42e-05 ± 1.1e-05 s⁻¹.

With C11A G66A, the “self-cleavage kobs at 10000 uM GlcN6P” value turned out to be 6.59e-05 ± 1.3e-05 s⁻¹.

A12C C16G U49A C68A: the “self-cleavage kobs at 10000 uM GlcN6P” value was less than 1e-05 s⁻¹.

As to A52U U55C U65C C68G U69A, the “self-cleavage kobs at 10000 uM GlcN6P” value was less than 1e-05 s⁻¹.

Turning to A33C G35C U47A, the “self-cleavage kobs at 10000 uM GlcN6P” value is less than 1e-05 s⁻¹.

Regarding C8A A36G U57C, the “self-cleavage kobs at 10000 uM GlcN6P” value was less than 1e-05 s⁻¹.

Consider C11G A33G G40U C70U, for which the “self-cleavage kobs at 10000 uM GlcN6P” value was less than 1e-05 s⁻¹.

As to A15C A33U U47C U57G C68U U69C, the “self-cleavage kobs at 10000 uM GlcN6P” value is less than 1e-05 s⁻¹.

As to A14G C50G C70U, the “self-cleavage kobs at 10000 uM GlcN6P” value came to 9.53e-05 ± 1.4e-05 s⁻¹.
